Data published in PMC7321154, “Pharmacokinetic Properties of ^68Ga-labelled Folic Acid Conjugates: Improvement Using HEHE Tag” (Molecules, 2020).
Numbered stars: 1 amine (or outer) side, 2 acyl side, 3 side chain; on linkers, the order of the positions; unused ones are H or OH. Peptide text beside a SMILES is read from it. * marks the point of attachment. NODAGA = O=C(O)CN1CCN(CC(=O)O)CCN(C(CCC(=O)*)C(=O)O)CC1; Pteroyl = Nc1nc2ncc(CNc3ccc(C(=O)*)cc3)nc2c(=O)[nH]1; γGlu = O=C(O)[C@H](CCC(=O)[*:2])N[*:1]

Assays:
in vivo [1] = test: in vivo; parameters: species or system BALB/c nude mice; details: female, BALB/c nude, mouse, iv, total radioactivity; for tissue to tissue ratio at 0.5 h / tissue to tissue ratio at 1 h: Differential uptake ratio (DUR)
Procedure: For the experimental tumor models athymic female BALB/c nude mice (4−5 weeks old, 18−20 g) were subcutaneously inoculated in the right flank with suspended 2 × 10^6 KB cells (150 μL, Opti-MEM (Gibco, Thermo Fisher Scientific, Waltham, MA, USA) and 50% Matrigel (Becton Dickinson, Franklin Lakes, NJ, USA). Tumors were allowed to grow for 12−16 days (tumor weight 500−900 mg). Animals were grouped (N = 3–5/group) and injected with 10−12 MBq/100 μL of each ^68Ga-NODAGA-folate conjugate into the tail vein. At preselected time points of (30, 60, 90, 120 min for rats and 30, 60 min for mice) animals were sacrificed. The organs of interest were collected, blotted dry, weighed, and counted using a WIZARD^2 automatic γ-counter (PerkinElmer). The results are expressed as the percentage of injected activity dose per gram (% ID/g ± SD) for each organ/tissue.

in vitro = in vitro ADME; details: human, plasma
Procedure: The plasma stability of [^68Ga]Ga-FA-I and [^68Ga]Ga-FA-II was determined in human plasma in vitro.

in vivo [2] = test: in vivo; parameters: species or system Wistar rats; details: Wistar, rat, iv, total radioactivity
Procedure: Normal biodistribution studies were carried out in healthy Wistar rats. Animals were grouped (N = 5/group) and injected with 10−12 MBq/100 μL of each ^68Ga-NODAGA-folate conjugate into the tail vein. Nonspecific uptake in FR-positive organs (e.g., kidneys) was determined by 5 min of folic acid pre-injection (36 μM, 100 μL) in PBS pH 7.4. At preselected time points of (30, 60, 90, 120 min for rats and 30, 60 min for mice) animals were sacrificed. The organs of interest were collected, blotted dry, weighed, and counted using a WIZARD^2 automatic γ-counter (PerkinElmer). The results are expressed as the percentage of injected activity dose per gram (% ID/g ± SD) for each organ/tissue.

Structure (SMILES): Nc1nc2ncc(CNc3ccc(C(=O)N[C@@H](CCC(=O)N[C@@H](CCCCNC(=O)CCC(C(=O)O)N4CCN(CC(=O)O)CCN(CC(=O)O)CC4)C(=O)N[C@@H](Cc4c[nH]cn4)C(=O)N[C@@H](CCC(=O)O)C(=O)N[C@@H](Cc4c[nH]cn4)C(=O)N[C@@H](CCC(=O)O)C(=O)O)C(=O)O)cc3)nc2c(=O)[nH]1 (stereo partly shown) [[^68Ga]Ga-FA-II, metal not drawn] ({Pteroyl-γGlu}-K(NODAGA)HEHE-OH)
- tissue to tissue ratio at 0.5 h (in vivo [1]; Tumor-to-blood): 1.6 ± 0.5
- tissue to tissue ratio at 1 h (in vivo [1]; Tumor-to-blood): 6.1 ± 2.5
- tissue to tissue ratio at 0.5 h (in vivo [1]; Tumor-to-kidneys): 0.39 ± 0.18
- tissue to tissue ratio at 1 h (in vivo [1]; Tumor-to-kidneys): 0.79 ± 0.28
- tissue to tissue ratio at 0.5 h (in vivo [1]; Tumor-to-muscle): 7.1 ± 2.8
- tissue to tissue ratio at 1 h (in vivo [1]; Tumor-to-muscle): 28.9 ± 13.7
- tissue uptake at 0.5 h (in vivo [1]; accumulation in bladder): 1.46 ± 0.53 %ID/g
- tissue uptake at 1 h (in vivo [1]; accumulation in bladder): 0.96 ± 0.46 %ID/g
- tissue uptake at 0.5 h (in vivo [1]; accumulation in brain): 0.09 ± 0.03 %ID/g
- tissue uptake at 1 h (in vivo [1]; accumulation in brain): 0.1 ± 0.03 %ID/g
- tissue uptake at 0.5 h (in vivo [1]; accumulation in intestines): 0.46 ± 0.15 %ID/g
- tissue uptake at 1 h (in vivo [1]; accumulation in intestines): 0.45 ± 0.13 %ID/g
- tissue uptake at 0.5 h (in vivo [1]; accumulation in kidneys): 4.47 ± 0.97 %ID/g
- tissue uptake at 1 h (in vivo [1]; accumulation in kidneys): 4.64 ± 0.26 %ID/g
- tissue uptake at 0.5 h (in vivo [1]; accumulation in liver): 0.51 ± 0.13 %ID/g
- tissue uptake at 1 h (in vivo [1]; accumulation in liver): 0.27 ± 0.08 %ID/g
- tissue uptake at 0.5 h (in vivo [1]; accumulation in muscle): 0.24 ± 0.04 %ID/g
- remaining at 3 h (in vitro): > 99%
- tissue uptake at 1 h (in vivo [2]): 4.27 ± 0.93 %ID/g
- tissue uptake at 0.5 h (in vivo [2]; accumulation in blood): 0.28 ± 0.03 %ID/g
- tissue uptake at 1 h (in vivo [2]; accumulation in blood): 0.22 ± 0.06 %ID/g
- tissue uptake at 1.5 h (in vivo [2]; accumulation in blood): 0.09 ± 0.01 %ID/g
- tissue uptake at 2 h (in vivo [2]; accumulation in blood): 0.06 ± 0.02 %ID/g
- tissue uptake at 0.5 h (in vivo [2]; accumulation in brain): 0.04 ± 0.01 %ID/g
- tissue uptake at 1 h (in vivo [2]; accumulation in brain): 0.02 ± 0.01 %ID/g
- tissue uptake at 1.5 h (in vivo [2]; accumulation in brain): 0.02 ± 0.01 %ID/g
- tissue uptake at 2 h (in vivo [2]; accumulation in brain): 0.01 ± 0.01 %ID/g
- tissue uptake at 0.5 h (in vivo [2]; accumulation in heart): 0.27 ± 0.07 %ID/g
- tissue uptake at 1 h (in vivo [2]; accumulation in heart): 0.16 ± 0.08 %ID/g
- tissue uptake at 1.5 h (in vivo [2]; accumulation in heart): 0.1 ± 0.01 %ID/g
- tissue uptake at 2 h (in vivo [2]; accumulation in heart): 0.08 ± 0.01 %ID/g
- tissue uptake at 0.5 h (in vivo [2]; accumulation in kidneys): 4.03 ± 0.94 %ID/g
- tissue uptake at 1 h (in vivo [2]; accumulation in kidneys): 4.64 ± 1.8 %ID/g
- tissue uptake at 1.5 h (in vivo [2]; accumulation in kidneys): 4.42 ± 1.27 %ID/g
- tissue uptake at 2 h (in vivo [2]; accumulation in kidneys): 4.34 ± 0.18 %ID/g
- tissue uptake at 0.5 h (in vivo [2]; accumulation in liver): 0.18 ± 0.06 %ID/g
- tissue uptake at 1 h (in vivo [2]; accumulation in liver): 0.12 ± 0.06 %ID/g
- tissue uptake at 1.5 h (in vivo [2]; accumulation in liver): 0.07 ± 0.01 %ID/g
- tissue uptake at 2 h (in vivo [2]; accumulation in liver): 0.05 ± 0.01 %ID/g
- tissue uptake at 0.5 h (in vivo [2]; accumulation in lungs): 0.28 ± 0.06 %ID/g
- tissue uptake at 1 h (in vivo [2]; accumulation in lungs): 0.24 ± 0.07 %ID/g
- tissue uptake at 1.5 h (in vivo [2]; accumulation in lungs): 0.12 ± 0.02 %ID/g
- tissue uptake at 2 h (in vivo [2]; accumulation in lungs): 0.11 ± 0.02 %ID/g
- tissue uptake at 1 h (in vivo [2]; accumulation in muscle): 0.06 ± 0.01 %ID/g
- tissue uptake at 1.5 h (in vivo [2]; accumulation in muscle): 0.04 ± 0.01 %ID/g
- tissue uptake at 2 h (in vivo [2]; accumulation in muscle): 0.04 ± 0.01 %ID/g
